For the assay, the target named is T1, folate receptor Frα (UniProt P15328 25-234, limits assumed).
T1 construct: whole, on cells; also called α-FR; folate receptor alpha
Nature of the assay: flow cytometry on IGROV-1, KB and A431-tFR cells; 0.025 mg/mL antibody fragment on nanocubes, 4° C., 1 hour; detected with anti-myc primary antibody and Alexa-488 secondary antibody. Here is the method: The A431-tFR and A431-MOCK cells provided by the IRCSS Foundation, National Cancer Institute, Milan, Italy, were grown in the modified Dulbecco culture medium (DMEM, Merck, Kenilworth, USA). IGROV-1 cells (ATCC, UK) were cultured in RPMI-1640 (RPMI-1640, Merck, Kenilworth, USA). The KB cells (ATCC, UK) were cultured in RPMI-1640 without folic acid (RPMI-1640 without folic acid, Merck, Kenilworth, USA). All culture media were added with 10% inactivated fetal bovine serum (FBS), 1% penicillin-streptomycin and 1% glutamine at 37° C., 95% humidity with 5% CO2. The cells were divided every 3-4 days before reaching confluence.
In these experiments, the functionalized nanocubes of the invention comprising the antibody fragment in a quantity of 0.025 mg/mL were incubated in PBS at 4° C. for 1 hour with 5×10⁵ cells of the cell lines indicated above. As a negative control, the non-functionalised nanocubes with polymer coating were used. Then, after three washes, the cells were incubated for 1 hour at 4° C. with the primary antibody that binds to the myc sequence of the C4 antibody fragment. Following a wash in PBS a secondary antibody conjugated to the fluorescent probe Alexa-488 was added to the cells, capable of binding the Fc portion of the primary antibody.
Background: Flow cytometry measures light scatter and fluorescence of single cells or particles in a stream.

The values below come from US20210052637A1 (CONSIGLI NAZIONALE DELLE RICERCHE, published 2021).

T1 sequence (P15328 25-234 limits assumed): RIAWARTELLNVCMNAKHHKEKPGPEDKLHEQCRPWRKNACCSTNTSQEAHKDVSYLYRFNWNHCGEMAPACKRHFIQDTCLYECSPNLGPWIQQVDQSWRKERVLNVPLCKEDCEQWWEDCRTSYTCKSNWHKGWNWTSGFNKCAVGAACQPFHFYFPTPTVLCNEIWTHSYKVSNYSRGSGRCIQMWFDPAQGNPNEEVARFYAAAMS

B1: single chain variable fragment of human antibody C4 (C4 scFv), attached to iron oxide nanocubes (scFv)
scFv: NVQLVESGGGLVQPGRSLRLSCTTSGFTFGDYAMIWARQAPGKGLEWVSSISSSSSYIYYADSVKGRFTISRDNAKNSLYLQMNSLRAEDTAVYYCARERYDFWSGMDVWGKGTTVTVSSGGGGSGGGGSGGSAQSALTQPASVSGSPGQSITISCTGTSSDVGSYNLVSWYQQHPGKAPKLMIYEGSKRPSGVSNRFSGSKSGNAASLTISGLQAEDEADYYCQSYDSSLSVVFGGGTKLTVLGAAAHHHHHHGAAEQ
modifications: histidine tag complexed to Ni2+ of PEG-NTA-Ni linker on the polymer-coated iron oxide nanocube
notes: In the assays the scFv was not free; It was held on polymer-coated cubic iron oxide nanoparticles through its histidine tag and PEG-NTA-Ni, with or without PEG-oxaliplatin; also called scFvC4; C4 antibody fragment
For B1, the binding result is on record as “binds”.
